17 sequences from the DeepSol protein solubility set can be followed below.

This data set is described as follows: soluble on expression in E. coli; label from the status in PepcDB or PDB records.
In the case of “MSLKAIFITGAGSGMGREGATLFHANGWRVGAIDRNEDGLAALRVQLGAERLWARAVDVTDKAALEGALADFCAGNVGGGLDMMWNNAGIGEGGWFEDVPYEAAVRVVDVNFKAVLTGAYAALPYLKKAPGSLMFSTSSSSGTYGMPRIAVYSATKHAVKGLTEALSVEWQRHGVRVADVLPGLIDTAILTSTRQHSDEGPYTISAEQIRAAAPKKGMFRLMPSSSVAEAAWRAYQHPTRLHWYVPRSIRWIDRLKGVSPEFVRRHIAKSLATLEPKREGHHHHHH”, the “soluble on expression in E. coli” value is on record as “soluble”. For “MSLKALARFGKAFGGYKMIHVPQPICGPEDVVTEIKAAAICGADMKHYNVDSGSDEFNSIRGHEFAGCIAQVGEKVKDWKVGQRVVSDNSGHVCGVCPACEQGDFLCCTEKVNLGLDNNTWGGGFSKYCLVPGEILKIHRHALWEIPDGVDYEDAAVLDPICNAYKSIAQQSKFLPGQDVVVIGTGPLGLFSVQMARIMGAVNIVVVGLQEDVAVRFPVAKELGATAVVNGSTEDVVARCQQICGKDNLGLVIECSGANIALKQAIEMLRPNGEVVRVGMGFKPLDFSINDITAWNKSIIGHMAYDSTSWRNAIRLLASGAIKVKPMITHRIGLSQWREGFDAMVDKTAIKVIMTYDFDEGHHHHHH”, the “soluble on expression in E. coli” value is given as “not soluble”.

As to “MSLKASLLQEQSLRLAMTQELRQAITMLQYNVQELSEFLYEQSLENPLIELGGFEREKKKSSNNSKSTSKQVENQMEIYSVDSTTIQQHLLNQIQYYKIEEEERKVASFIIMNMDGNGYLQETNEELANLLSAPLHVVDRSVELVQSLEPAGVGARNIQECLTLQLKRLQRRNGLAEEVVEDHFAYFVKKDWRKLVQVLKCSNEELQDAVNCITSLQPKPGLAFSSDKPLYIVPDMAVKKDGDRLVLQMNERNMPRIEIHSEYSALLNNSESEVASYVSEKYQHVQWIMRSLKQRKQTLLQVMTIIMEKQRDFFWKGPEYLKPLALKEVAEELSVHESTISRATRNKYVQTPHGLFEMKSFFSNAVSTTEDEAVSTKRVKQFIQTLVEAENKKKPLSDQKISKLLEEEHEIVISRRTVAKYREQMHIPASSLRKTIGEGHHHHHH”, the “soluble on expression in E. coli” value was “not soluble”. With “MSLKFFPTRTLLCLCIAAPCLPAIAQNDPIELPDIGTVAGSTLTIDQELIYGDAYMRMLRNNQPVINDPVLNEYIDNLGHRLVASANDVKTPFTFFMIRDRNINAFAFFGGYVALHSGLFLHAQSESELASVMAHEIAHVTQRHLARSMEEQARRSPATIAALAGSLLLAIAAPEAGIAAINATMAGSIQGQINYTRSNEKEADRFGIATLAKAGFDANAMPQFFTRLADEYRYASKPPPMLLTHPLPEDRITDSRERARQYPPLKLAPHLDYHLARARIIARYAGIDADAALDWFARSEKKIDATLQPSIQYGKALVYLDLKQFDKAEPLLTQLVKEQPDNHFYLDAISDLYIELKQADKAQSLLEKALKQTPNNSVLTINYANVLLKQDKFTDAIRILQRYTHDNPNDINGWQLLSEANSRLGNSAEDLAARGEIMALQANWNKAIQFYTQASQLVELGSLAQARYDARIDQLMVQRERFLSLQEGGSHHHHHH” the entry was “soluble”. To “MSLKFMYSALLGNPVEHSISDELFEYLNHNIGVLDEYKHKKILVDSVCLEDKIKHLINDPKCIGLNITLPYKREVMRYIDNLDRVAEITGSVNNIYKSGNIITGTNTDWKGIYNTLVFFNISHITKCCVLGTGGTARAAIFALQKLQISPTVVYREPISENTRSLIKSFPDLKYITYKELADQQILNDMEIIINTTPVGMINYEESLPINFDHLDNVNYKDKYFMDVVFNPLHTKLHEYFGKKGAKIIDGLWVLIFQGIEAFSLWSDKINDGKYFFSEGHHHHHH” belongs “not soluble”; to “MSLKGQNQHSVLRNFPVLGRIRYISEKIGPELRQYFFANDNEGKPFSRSDYKNIVLAGKYKSRMTSFGTGKDYLEGFYIQNTMFPLQATELHIDHTEFISTFLYHIENERLFSREEYRKSAQVDPFFLTDEHAVVLGSNLKHPFKIKRLVGQSGMSYGALGKNAITALSMGLAKAGTWMNTGEGGLSEYHLKGNGDIIYQIGPGLFGVRDHDGNFNRDMFINLAEHNNVRAFEIKLAQGAKTRGGHMEGNKVTEEIARIRNVKPYETINSPNRFDFIKNPTDLLNFVNHLQSIGQKPVGFKIVVSKVEEIEALVKTMIEIDTYPSFITVDGGEGGTGATFQELEDGVGLPLFTALPIVSSMLEKYGIRNKVKIFASGKLVTPDKIAIALGLGADLVNIARGMMISVGCIMSQQCHLNTCPVGVATTDPKKEKGLIVDEKQYRVTNYVTSLHEGLFNIAAAVGVHSPTEITSDHIIYRQLDGTTTSIQDYKLKLISEGHHHHHH”, “not soluble”. For “MSLKHVAVYLRLSRGEDESELDNHKTRLLNRCELNNWSYELYKEIGSGSTIDDRPVMQKLLTDVEKNLYDAVLVVDLDRLSRGNGTDNDRILYSMKVSETLIVVESPYQVLDANNESDEEIILFKGFFARFEFKQINKRMREGKKLAQSRGQWVNSVTPYGYIVNKTTKKLTPSEEEAKVVIMIKDFFFEGKSTSDIAWELNKRKIKPRRATEWRSSSIANILQNEVYVGNIVYNKSVGNKKPSKSKTRVTTPYRRLPEEEWRRVYNAHQPLYSKEEFDRIKQYFECNVKSHKGSEVRTYALTGLCKTPDGKTMRVTQGKKGTDDDLYLFPKKNKHGDSSIYKGISYNVVYETLKEVILQVKDYLDSVLDQNENKDLVEELKEELMKKEDELETIQKAKNRIVQGFLIGLYDEQDSIELKVEKEKEIDEKEKEIEAIKMKIDNAKTVNNSIKKTKIERLLSDVQSAESEKEINRFYKTLIKEIIVDRTDENEAKIKVNFLEGHHHHHH”, the “soluble on expression in E. coli” value is “not soluble”. Regarding “MSLKHYDLIIIGTGSGNSIPGPEFDDKSIAIVEKGAFGGTCLNVGCIPTKMYVYAADIAQEIQESARLGIDATVNSVDWPSIVSRVFDKRIDLIAQGGEAYRRGPETPNIDVYDMHASFVDSKTISTGIAGQEQLISGTDIVIATGSRPYIPEAIAESGARYYTNEDIMRLAQQPESLVIVGGGFIALEFAHVFEALGTKVTILNRSDVLLREADADISAKILELSKKRFDVRLSTAVTAVHNKADGGVKISTDTGDDIEADILLVATGRTPNGNQMNLDAAGIEMNGRSIKVDEFGRTSVEGVWALGDVSSPYKLKHVANAEMRAIKHNLANPNDLQKMPHDFVPSAVFTNPQISQVGMTEQEAREAGLDITVKIQNYSDVAYGWAMEDKDGFVKLIADKDTGKLVGAHIIGAQASTLIQQLITVMAFGIDAREAATKQYWIHPALPEVIENALLGLEFEGHHHHHH”, the “soluble on expression in E. coli” value is “soluble”. Regarding “MSLKIGIDVGSTTAKLVAVDENDNLLFSKYERHNAKAKETILSFLKELLSEIGDKDISVRITGSIGMGISEKCSLPFVQEVVAAAKAIQKDYSHVTSMIDIGGEDAKVVFFNDAEATDLRMNGNCAGGTGAFIDQMAIILGVNIDELNQLAMNATQVYPIASRCGVFCKTDIQNLIAKNVSRENIAASIFRAVAVQTVVTLAHGCDITTPVLFCGGPLTFIPALRKAFIDYLSLDEKEIILPANGTLLPALGAALFHLDKEDYCKLSHLIDKEGHHHHHH”, the “soluble on expression in E. coli” value is recorded as “soluble”. Consider “MSLKILMIMEEAEERRSLAEKFIENIKNVECFEASMGTEALFIMKKHTPDFVFLNSKLMDGTGFEYVNLLREVNCYAKFIFMGEDIEESITAFRFQAFYYLLRPFREEDLQFLLYRMGKEGHHHHHH”, for which the “soluble on expression in E. coli” value is listed as “soluble”. Take “MSLKINVADFHGTYLENPRTVNNFSLTGTDQKVFDNSSLQGRWTLVFFGFTNCGYLCPTTMAELGKMYRILEKKGVKNLPQVVMISIDPQRDSLDKLGSYVTSFHKSFYGARGEEDSIKSMTHEMGIAYAKINSKESSEPENYDIQHSGAVMLFNPQGELNAFFTTPHHADLLAKDYVLLVSEGHHHHHH”: the “soluble on expression in E. coli” value is “soluble”. Regarding “MSLKITGFRSLTTVHRWGRPVGDANGFVAQGVTEVPVLLVETDGGLTGVGLGAHGDAERVFPALDGQDPRAVTTLYDRMLAHTFKSGHAGTAFGTIGAFDTALWDLKAKMAGEPLWRTLGAADRFVPGYASGLDIALDEEELVALYSGWAARGFTGAKLKGGLDTERDIGRLRAVAEVLRPNTRSPALMLDVNESWGRHQAVRLLARIEDRVELAWIEEPVRRWDARGHRAVGRAGRTAVASGENLTGLEQFRPLLAADALQVVQAAGVWGITHFLRVATLAHGHDLPVSPVGYHANPLAHAAAAVPNHLVTEVQDIGTPAGLTVDQAIEDGGIVLGDAPGLGITVDESALAAPRQNAGWARPDGPHVRPRDAGLRLVPEPGPPGPAARVRAGTPSLGVPGPVHRPARSEHTERENTPEGHHHHHH”, the “soluble on expression in E. coli” value was “not soluble”. In the case of “MSLKITKVEVIPISTPMKRAQLMRGATLARIDGVLLKLHSDEGLVGIADAGDTSSWYRGETQDSITSMICDFFAPKVLLGEDPTKIEKIVGRMDILTRDNNQAKATVDFALHDLVGKRFGVPVYQLLGGKTIERIPLGLVLGAGEPEAVAEEALAVLREGFHFVKLKAGGPLKADIAMVAEVRRAVGDDVDLFIDINGAWTYDQALTTIRALEKYNLSKIEQPLPAWDLDGMARLRGKVATPIYADESAQELHDLLAIINKGAADGLMIKTQKAGGLLKAQRWLTLARLANLPVICGCMVGSGLEASPAAHLLAANDWIAQFPQENAGPLHIHDCLNSRDIDNDIALNVPRFEGGYLYPNDGPGLGIELNEDLVRRLVTPGKAARVVTAEGHHHHHH”, the “soluble on expression in E. coli” value was “soluble”.

“MSLKKENSVEFKVSGRYALFSDPINRIGGEKFSYQVPTYQALKGILESVYWKPTLIWIIDEVRVMNLIKTQSQNIRPVNFSGTSKGTGTPLNTLSIYTYLTNVEYQVKAHFEWNYNRPNLEKDRNENKHYIVAKRMINRGGRRDVFLGTRECQAYVEPCKFGEGEGAYDHYGSLSFGLMFHGFDYPDETGEDKLTARLWSPVMNNGYIKFLRPDECTIKRELSSMKPKVFDENNFSGLEEFEEEGDIIELDSEGHHHHHH”: the “soluble on expression in E. coli” value is on record as “soluble”. For the sequence “MSLKKFQHEFWTATSGDLTQRRTPLATPDYQSTSAAAVKIIIDPADRHQPWLGGGAAITDSAAYLLWSVMSAEQRRALLTELFDPDQGGFSSVRVPLGSCDFQSQDFYTYDDVPYGEHDQKLEQFSIGTGQPGAPDATKDLKHIVPVLQEILAINPAVKVIASPWSAPAWMKNTGHLTHGGHLRFGEFTGNGYTEENRFEYIYAQYFIRYIEAYQKLGIPIYGLTIQNEPSNAAHWPAMIWTVPQLADFGYRYLRPALNHSFPDTKLYLLDDSFHALTKPITAEVTPEQAAAFDGLAVHTYSGPYDNLYHANRAYPNWSTIMTERRCMMTDTPEEAAHIMFGIIGNWLVHNGLSMITLWNLALDERGLPNAADSTGREGVVTIDHTTGKVQRNLEYFMLRNFGQDVSVGATVIGSTNYTRDGYTGGLGSVAFLGTAGDIAAHLYNPTAQPIQAAVTINGNGANWQLVTVPPYGTVTLHKSDAPLNTTNVPVDDEFPLNPTPANHSDVAPGQHEGHHHHHH”, the “soluble on expression in E. coli” value was “not soluble”. With “MSLKKILLLLANGFEAVEASVFTDVLGWNMLEGDGSTLVVTAGMHDKIKCTWNFTVLPEIKIKNVNVDDFEALVIPGGFEEAGFFIDAYSNSFLDLIRTFNAKGKIIASVCVGALSIGKSGILKGRTATTYNLNDRKRQYELSKFGVKILENQPIVIDKNVITSYNPSTAFNVAFTLLEMLTSTENCTKVKKLMGFIEGHHHHHH” the entry was “soluble”; with “MSLKKIWLGILISVCTLLGADMSLWQKSTLNEIIKRGELRVGLEPGYLPFEMKDKKGNVIGFDVDLAREMAKAMGVKLKLVPTSWDGLIPGLVTEKFDIIISGMTISQERNLRVNFVEPYIVVGQSLLVKKGLEKGVKSYKDLDKPELTLVTKFGVSAEYAAKRLFKNAKLKTYDTEAEAVQEVLNGKADMFIFDLPFNVAFMAQKGQGYLVHLDTSLTYEPLGWAIKKGDPDFLNWLNHFLAQIKHDGSYDELYERWFVDTKWLEKIQEGHHHHHH”, “soluble”.
